Laboratory results taken from patent US20140357543A1.

T1: alcalase (trade name "Alcalase 2.5L", Novozymes) (UniProt P00780)
T1 sequence (looked up): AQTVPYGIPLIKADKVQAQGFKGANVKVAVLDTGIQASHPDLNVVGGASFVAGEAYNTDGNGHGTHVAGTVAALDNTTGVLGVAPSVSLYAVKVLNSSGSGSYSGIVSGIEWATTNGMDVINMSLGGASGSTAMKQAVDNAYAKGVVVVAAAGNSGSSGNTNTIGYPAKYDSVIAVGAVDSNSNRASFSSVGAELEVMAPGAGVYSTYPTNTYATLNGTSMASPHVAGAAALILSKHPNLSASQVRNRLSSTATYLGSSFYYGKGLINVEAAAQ

B1: proteinaceous protease inhibitor of SEQ ID NO:40 (protein)
chain: TECGGGGGAKTSWPEVVGLSVEEAKKVILKDKPDADIVVLPVGSVVTADYRPNRVRIFVDIVAQTPHVG
B2: proteinaceous protease inhibitor of SEQ ID NO:41 (protein)
chain: MSSVEKKPEGVNTGAGDRHNLKTEWPELVGKSVEEAKKVILQDKSEAQIIVLPVGTIVTMEYRIDRVRLFVDKLDNIAQVPRVG
B3: proteinaceous protease inhibitor (BC) of SEQ ID NO:1, wheat-derived subtilisin/chymotrypsin inhibitor (protein)
chain: TDTGDHHNQKTEWPELVGKSVEEAKKVILQDKSEAQIVVLPVGTIVTMEYRIDRVRLFVDSLDKIAQVPRVG
B4: proteinaceous protease inhibitor of SEQ ID NO:6 (protein)
chain: TDTGDHHNQKTEWPELVGKSVEEAKKVILQDKSEAQIIVLPVGTIVTMEYRIDRVRLFVDSLDKIAQVPRVG
B5: proteinaceous protease inhibitor of SEQ ID NO:5 (protein)
chain: TDTGDHHNQKTEWPELVGKSVEEAKKVILQDKSEAQILVLPVGTIVTMEYRIDRVRLFVDSLDKIAQVPRVG

target: T1, alcalase (trade name "Alcalase 2.5L", Novozymes); test: cell-based or functional assay

Question: What does the source list for B1?
Answer: Protease activity upon dilution (%) immediately after preparation: 100%; Remaining activity (%) immediately after preparation: 53%

Question: How did the Protease activity upon dilution (%) immediately after preparation turn out when B2 was run?
Answer: 8%

Question: What about the Remaining activity (%) immediately after preparation of the same binder?
Answer: 0%

Question: What does the source list for B3?
Answer: Protease activity upon dilution (%) immediately after preparation: 10%; Remaining activity (%) immediately after preparation: 0%

Question: What does the source list for B4?
Answer: Protease activity upon dilution (%) immediately after preparation: 10%; Remaining activity (%) immediately after preparation: 0%

Question: What does the source list for B5?
Answer: Protease activity upon dilution (%) immediately after preparation: 100%; Remaining activity (%) immediately after preparation: 11%
